Results reported in patent US20210340530A1 (INTELLIA THERAPEUTICS, published 2021).

Legend:
[1] = molecular target: T1, VLD-Tetramer (pMHC tetramer with WT1 peptide …); assay: flow cytometry, VLD-Tetramer staining of engineered T cells; TRAC RNP only
T1 construct: Staining reagent; also called VLD (Wilms' tumor antigen) tetramer; TCR specific pMHC tetramer
Experimental: (§1) Four to 12 days after RNP nucleofection, edited T cells (200 ul/200,000 cells) were collected in a 96 well round bottom plate and spun down at 500 g for 5 minutes. Cells were then resuspended in an antibody mixture containing a combination of antibodies targeting CD3, CD4, CD8, CD45RO, CD45RA, CD27, CCR7, CD62L, and/or the TCR specific pMHC tetramer or TCR specific Vbeta chain antibody. The mixture was incubated for 45 minutes at room temperature in the dark. Samples were spun down at 500 g for 5 minutes, cell pellets collected, and resuspended in 1:10,000 DAPI (Biolegend—#422801) in FACS buffer. Flow cytometry was then performed using the cytoflex according to the manufacturer's instructions.
(§2) T cells were evaluated with additional engineered TCRs for the impact of endogenous beta chains on pairing of both the inserted alpha chain and inserted beta chain. The experiment was performed as described herein except tetramer staining was used to measure MFI and the AAV inserts in Table 31 were used for transduction.

[2] = molecular target: T1, VLD-Tetramer (pMHC tetramer with WT1 …); assay: flow cytometry, VLD-Tetramer staining of engineered T cells; TRAC + TRBC RNP
Experimental: as §1, §2

B1: TCR-F (WT1-specific T-cell receptor) (TCR, V domains shown)
V domain 1: AQKITQTQPGMFVQEKEAVTLDCTYDTSDPSYGLFWYKQPSSGEMIFLIYQGSYDQQNATEGRYSLNFQKARKSANLVISASQLGDSAMYFCAISGNTPLVFGKGTRLSVIA
V domain 2: AAGVIQSPRHLIKEKRETATLKCYPIPRHDTVYWYQQGPGQDPQFLISFYEKMQSDKGSIPDRFSAQQFSDYHSELNMSSLELGDSALYFCASSLRGGLEKLFFGSGTQLSVLE
notes: also called AV14-TCR-F
Mean % Tetramer+ (CD4+) [1]: 78.9% | Mean % Tetramer+ (CD8+) [1]: 61% | Mean Tetramer MFI (CD4+) [1]: 67300 MFI | Mean Tetramer MFI (CD8+) [1]: 50100 MFI | Mean % Tetramer+ (CD4+) [2]: 81.8% | Mean % Tetramer+ (CD8+) [2]: 76.6% | Mean Tetramer MFI (CD4+) [2]: 231000 MFI | Mean Tetramer MFI (CD8+) [2]: 172000 MFI
